Laboratory results from PMC3152652.

Legend:
[1] = HEK 293, Western blot densitometry, pro-BNP to BNP conversion; conditions: glycan lost; control: wild type
[2] = HEK 293 co-expression, Western blot of conditioned medium; conditions: glycan lost; control: wild type

## pro-BNP (pro-B-type natriuretic peptide): T71A
[1]
  other: proteolytic processing: increases
[2]
  other: proteolytic processing: increases
